The test addresses human glucagon-like peptide-1 receptor (GLP-1R) (human (printed as 'Humanized')) (UniProt P43220). The test is described as follows: cell-based or functional assay.

human glucagon-like peptide-1 receptor (GLP-1R) (human (printed as 'Humanized')), sequence (P43220 24-463): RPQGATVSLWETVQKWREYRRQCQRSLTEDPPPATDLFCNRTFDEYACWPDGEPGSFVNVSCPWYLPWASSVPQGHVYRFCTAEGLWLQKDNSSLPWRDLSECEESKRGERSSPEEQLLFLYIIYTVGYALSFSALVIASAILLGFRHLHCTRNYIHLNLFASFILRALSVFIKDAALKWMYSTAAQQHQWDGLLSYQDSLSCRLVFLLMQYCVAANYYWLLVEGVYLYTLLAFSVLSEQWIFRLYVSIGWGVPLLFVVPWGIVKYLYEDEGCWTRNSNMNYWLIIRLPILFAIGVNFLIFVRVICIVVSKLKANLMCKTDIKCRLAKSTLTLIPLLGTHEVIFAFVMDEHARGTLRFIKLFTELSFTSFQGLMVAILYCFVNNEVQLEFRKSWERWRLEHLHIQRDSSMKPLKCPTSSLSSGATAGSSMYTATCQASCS

The substance “Dulaglutide (Trade name: Trulicity) (Fc fusion)” registered a GLP-1R agonist activity (EC50, nM) of 0.01 nM.

For the origin of these results see patent publication US20230218721A1, “INCRETIN ANALOGUE, PREPARATION METHOD THEREFOR, AND USE THEREOF” (ZHEJIANG DOER BIOLOGICS CO., LTD., priority 2020, published 2023).
